{"source": "patent US20160184446A1", "about": "“METHOD OF INHIBITING BODY CAVITY FLUID ACCUMULATION” (Toray Industries, Inc., priority 2012, published 2016)", "molecules": {"B1": {"name": "PEG-mIFN-β: one PEG molecule with a molecular weight of 42,000 covalently bound to recombinant mouse interferon-β (conjugate, UniProt P01575 22-182, looked up)", "Interferon beta": "INYKQLQLQERTNIRKCQELLEQLNGKINLTYRADFKIPMEMTEKMQKSYTAFAIQEMLQNVFLVFRNNFSSTGWNETIVVRLLDELHQQTVFLKTVLEEKQEERLTWEMSSTALHLKSYYWRVQRYLKLMKYNSYAWMVVRAEIFRNFLIIRRLTRNFQN", "modifications": "42 kDa PEG"}}, "test_system": "gastric cancer peritoneal metastasis mouse models (GCIY-EGFP cells)", "assay": "Ascites accumulation in gastric cancer peritoneal metastasis mouse models, systemic (subcutaneous) administration", "format": "in vivo", "conditions": "subcutaneous (systemic), 5,000 U/mouse/dose, twice a week for 4 weeks; ascites collected 2 weeks after final administration; vs PBS control", "method": "Gastric cancer peritoneal metastasis mouse models were produced by transplanting human gastric cancer cells, GCIY-EGFP cells, intraperitoneally into male KSN nude mice in the same manner as in Example 2.\nAdministration was initiated on the day after transplantation and performed twice a week for 4 weeks. Phosphate buffer (PBS) was administered to the control group in the same manner. Ascites was collected from the gastric cancer peritoneal metastasis mouse models under anesthesia 2 weeks after the final administration and the liquid volume was measured.\nThe vertical axis represents the amount of ascites (median; mL)."}
{"molecule": "B1", "values": [{"measurement": "accumulation of ascites (amount of ascites)", "value": "remarkably inhibited"}]}
